Laboratory results as given in paper PMC5228590 (Journal of bone and mineral research : the official journal …, 2016).

Molecular target: vimentin (mouse (endogenous in MC-3T3 and in …, UniProt P20152 1-466))
Assay: co-IP

vimentin (mouse, sequence (P20152 whole entry): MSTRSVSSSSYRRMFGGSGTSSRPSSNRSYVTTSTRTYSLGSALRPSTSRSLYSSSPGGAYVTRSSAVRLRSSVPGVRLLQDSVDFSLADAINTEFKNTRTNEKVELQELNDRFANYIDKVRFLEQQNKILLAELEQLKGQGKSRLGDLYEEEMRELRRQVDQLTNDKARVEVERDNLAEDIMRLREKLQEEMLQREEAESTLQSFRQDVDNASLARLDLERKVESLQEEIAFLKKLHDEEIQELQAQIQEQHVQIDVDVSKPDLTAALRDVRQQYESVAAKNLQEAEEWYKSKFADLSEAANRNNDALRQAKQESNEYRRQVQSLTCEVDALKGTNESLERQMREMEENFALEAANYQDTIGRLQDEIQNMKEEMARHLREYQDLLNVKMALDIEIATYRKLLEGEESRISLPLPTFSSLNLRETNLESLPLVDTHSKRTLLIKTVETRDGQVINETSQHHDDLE

B1: activated PKCζ (phosphorylated on threonine 410) (enzyme, mouse (endogenous in MC-3T3), UniProt Q02956 1-592, looked up)
chain: MPSRTDPKMDRSGGRVRLKAHYGGDILITSVDAMTTFKDLCEEVRDMCGLHQQHPLTLKWVDSEGDPCTVSSQMELEEAFRLVCQGRDEVLIIHVFPSIPEQPGMPCPGEDKSIYRRGARRWRKLYRANGHLFQAKRFNRGAYCGQCSERIWGLSRQGYRCINCKLLVHKRCHVLVPLTCRRHMDSVMPSQEPPVDDKNDGVDLPSEETDGIAYISSSRKHDNIKDDSEDLKPVIDGVDGIKISQGLGLQDFDLIRVIGRGSYAKVLLVRLKKNDQIYAMKVVKKELVHDDEDIDWVQTEKHVFEQASSNPFLVGLHSCFQTTSRLFLVIEYVNGGDLMFHMQRQRKLPEEHARFYAAEICIALNFLHERGIIYRDLKLDNVLLDADGHIKLTDYGMCKEGLGPGDTTSTFCGTPNYIAPEILRGEEYGFSVDWWALGVLMFEMMAGRSPFDIITDNPDMNTEDYLFQVILEKPIRIPRFLSVKASHVLKGFLNKDPKERLGCRPQTGFSDIKSHAFFRSIDWDLLEKKQTLPPFQPQITDDYGLDNFDTQFTSEPVQLTPDDEDVIKRIDQSEFEGFEYINPLLLSAEESV
modifications: phosphothreonine at 410
In the case of B1, the “fold increase of the association with IGF-I” value is reported as 3.5 fold.
